Assay results from patent US20190330280, “TRANSCRIPTIONAL REGULATORY FUSION POLYPEPTIDE” (Astellas Pharma Inc., published 2019).

Columns and labels:
Experiment in all cases: cell_activity; human T cells, 3.0 nM protein added to medium, 24 h, 37 C
Details in all cases: tags: N-terminal GST, NTP cell-penetrating peptide, p300 core fusion
NTP-TALE-TERT-1-p300CD = target: T1, NTP-TALE-TERT-1-p300CD (artificial, UniProt P14727 SEQ:29-906)
T1 chain: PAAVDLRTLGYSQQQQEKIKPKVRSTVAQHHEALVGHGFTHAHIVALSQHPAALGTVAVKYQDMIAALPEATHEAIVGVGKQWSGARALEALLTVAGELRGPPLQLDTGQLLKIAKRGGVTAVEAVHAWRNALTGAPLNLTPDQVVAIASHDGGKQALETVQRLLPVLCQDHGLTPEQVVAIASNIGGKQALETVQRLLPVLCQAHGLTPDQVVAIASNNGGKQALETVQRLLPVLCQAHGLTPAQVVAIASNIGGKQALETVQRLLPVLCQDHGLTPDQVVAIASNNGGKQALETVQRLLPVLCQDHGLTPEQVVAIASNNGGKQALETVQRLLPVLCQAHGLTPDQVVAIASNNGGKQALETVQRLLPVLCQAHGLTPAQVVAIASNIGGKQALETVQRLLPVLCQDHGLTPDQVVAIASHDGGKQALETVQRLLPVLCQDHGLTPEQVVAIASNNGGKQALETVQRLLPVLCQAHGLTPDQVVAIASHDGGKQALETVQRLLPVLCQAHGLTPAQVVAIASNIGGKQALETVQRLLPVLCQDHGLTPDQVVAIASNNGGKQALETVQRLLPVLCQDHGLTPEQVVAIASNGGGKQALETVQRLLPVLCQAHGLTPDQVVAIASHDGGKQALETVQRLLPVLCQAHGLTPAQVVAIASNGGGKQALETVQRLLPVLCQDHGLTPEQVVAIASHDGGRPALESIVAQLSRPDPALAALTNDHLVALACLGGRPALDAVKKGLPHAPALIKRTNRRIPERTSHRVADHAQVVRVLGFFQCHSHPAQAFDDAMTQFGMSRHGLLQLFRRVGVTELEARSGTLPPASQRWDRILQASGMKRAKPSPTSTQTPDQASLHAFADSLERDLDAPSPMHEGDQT
Experimental: (§1) Each NTP-TALE-Activator (NTP-TALE-TERT-1-p300CD, NTP-TALE-TERT-2-p300CD and NTP-TALE-TERT-3-p300CD) targeting human TERT, prepared in Example 1 was dialyzed at 4° C. for 3 hours against OPTI-MEM medium (Thermo Fisher Scientific Inc.) in a microdialysis column (Tomy Seiko Co., Ltd.). The concentrations after purification were 40 nM NTP-TALE-TERT-1-p300CD, 55 nM NTP-TALE-TERT-2-p300CD, and 55 nM NTP-TALE-TERT-3-p300CD. Human T cells (obtained by separation from peripheral mononuclear cells in blood collected from a healthy person) were suspended in 100 μL of KBM550 (Kohjin Bio Co., Ltd.) and seeded in a 96-well plate at 0.5×10⁴ cells/well.
(§2) The obtained human T cells were cultured for 12 hours. Then, each NTP-TALE-Activator dialyzed as mentioned above was added at 3.0 nM (final concentration) to each well (as a result of conducting studies beforehand with a plurality of concentrations, the concentration at which each NTP-TALE-Activator was most responsive was 3.0 nM). Wells to which NTP-TALE-Activator was not added were prepared as a control. The plate was left standing for 24 hours in an incubator at 37° C. and a CO₂ concentration of 5%.

NTP-TALE-TERT-3-p300CD = target: T2, NTP-TALE-TERT-3-p300CD (artificial, UniProt P14727 SEQ:29-906)
T2 chain: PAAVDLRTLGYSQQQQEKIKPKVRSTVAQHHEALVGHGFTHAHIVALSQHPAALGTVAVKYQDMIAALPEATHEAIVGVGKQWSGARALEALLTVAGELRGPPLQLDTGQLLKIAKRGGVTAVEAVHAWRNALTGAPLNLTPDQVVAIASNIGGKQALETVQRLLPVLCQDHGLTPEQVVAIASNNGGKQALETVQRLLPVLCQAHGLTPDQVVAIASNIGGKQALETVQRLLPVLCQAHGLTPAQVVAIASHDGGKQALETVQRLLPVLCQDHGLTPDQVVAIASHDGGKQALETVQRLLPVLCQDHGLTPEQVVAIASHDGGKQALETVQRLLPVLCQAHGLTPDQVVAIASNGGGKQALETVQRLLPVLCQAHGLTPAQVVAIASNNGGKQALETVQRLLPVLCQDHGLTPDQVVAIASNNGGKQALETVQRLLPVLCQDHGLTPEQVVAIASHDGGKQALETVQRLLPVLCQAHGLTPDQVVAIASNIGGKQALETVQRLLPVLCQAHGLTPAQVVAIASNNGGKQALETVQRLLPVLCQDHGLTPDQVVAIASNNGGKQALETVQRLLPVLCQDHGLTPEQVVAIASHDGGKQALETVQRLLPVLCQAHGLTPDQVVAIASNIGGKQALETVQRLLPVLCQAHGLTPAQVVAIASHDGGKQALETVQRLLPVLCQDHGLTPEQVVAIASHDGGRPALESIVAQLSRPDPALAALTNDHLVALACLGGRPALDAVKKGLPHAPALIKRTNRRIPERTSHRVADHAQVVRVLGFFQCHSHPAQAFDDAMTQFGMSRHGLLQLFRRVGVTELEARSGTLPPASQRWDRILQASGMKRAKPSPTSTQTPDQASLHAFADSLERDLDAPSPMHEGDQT
Experimental: as §1, §2

NTP-TALE-TERT-2-p300CD = target: T3, NTP-TALE-TERT-2-p300CD (artificial, UniProt P14727 SEQ:29-906)
T3 chain: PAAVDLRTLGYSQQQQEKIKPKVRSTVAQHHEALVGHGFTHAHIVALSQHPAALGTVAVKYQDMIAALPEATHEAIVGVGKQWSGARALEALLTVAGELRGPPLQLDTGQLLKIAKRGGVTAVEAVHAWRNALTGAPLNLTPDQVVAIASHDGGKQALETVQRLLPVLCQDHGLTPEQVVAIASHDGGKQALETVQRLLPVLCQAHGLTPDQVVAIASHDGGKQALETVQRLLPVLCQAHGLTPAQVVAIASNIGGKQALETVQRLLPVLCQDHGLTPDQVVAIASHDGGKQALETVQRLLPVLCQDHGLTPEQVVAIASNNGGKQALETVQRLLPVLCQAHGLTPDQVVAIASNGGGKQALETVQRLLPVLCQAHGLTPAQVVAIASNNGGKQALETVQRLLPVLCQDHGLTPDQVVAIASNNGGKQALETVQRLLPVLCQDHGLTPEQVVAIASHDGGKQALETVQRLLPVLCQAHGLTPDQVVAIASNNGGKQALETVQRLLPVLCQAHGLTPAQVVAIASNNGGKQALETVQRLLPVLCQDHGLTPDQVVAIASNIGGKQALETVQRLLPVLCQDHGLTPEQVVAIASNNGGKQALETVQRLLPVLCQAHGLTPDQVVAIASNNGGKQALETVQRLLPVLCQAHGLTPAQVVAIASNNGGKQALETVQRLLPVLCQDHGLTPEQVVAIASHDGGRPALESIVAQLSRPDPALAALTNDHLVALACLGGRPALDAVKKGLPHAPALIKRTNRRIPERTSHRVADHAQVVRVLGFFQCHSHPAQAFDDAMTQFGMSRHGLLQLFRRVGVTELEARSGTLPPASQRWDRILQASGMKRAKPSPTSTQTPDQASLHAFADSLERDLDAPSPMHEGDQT
Experimental: as §1, §2

B1: human TERT enhancer target (AH007699.2 nt 49444-49461) (dsDNA)
DNA 1: TCAGAGGGACGCAGTCTT
DNA 2: AAGACTGCGTCCCTCTGA
NTP-TALE-TERT-1-p300CD
  activity: ~17 fold TERT mRNA

B2: human TERT enhancer target (AH007699.2 nt 6501-6518) (dsDNA)
DNA 1: TAGACCCTGGCAGGCACT
DNA 2: AGTGCCTGCCAGGGTCTA
NTP-TALE-TERT-3-p300CD
  activity: ~2 fold TERT mRNA

B3: human TERT promoter target (AH007699.2 nt 11029-11046) (dsDNA)
DNA 1: CCCCACGTGGCGGAGGGA
DNA 2: TCCCTCCGCCACGTGGGG
NTP-TALE-TERT-2-p300CD
  activity: ~3.5 fold TERT mRNA
